Laboratory results reported in publication PMC4063869, “Structure of CbpA J-Domain Bound to the Regulatory Protein CbpM Explains Its Specificity and Suggests Evolutionary Link between CbpM and Transcriptional Regulators” (PLoS ONE, 2014).

What was measured:
[1] = molecular target: Klebsiella pneumoniae CbpM (residues 2-101) (Klebsiella pneumoniae (strain ATCC 700721/MGH 78578)); assay: crystal structure; K. pneumoniae CbpM with E. coli CbpA^Jdom, complex separated from excess CbpA^Jdom on Superdex 75; hanging drop, 0.1 M HEPES pH 7, 20% (w/v) PEG 8K; 1.87 Å
[2] = molecular target: the molecule itself; assay: as above
[3] = molecular target: T1, CbpM (residues 2-101), species not named for the experiment ( (E. coli K-12 or K. …, UniProt P63264 2-101)); assay: SPR; CbpM immobilised, DnaJ^Jdom variants injected (50 µL/min, 120 s); ProteOn XPR36, 25°C, 50 mM sodium phosphate pH 7.4, 100 mM NaCl, 1 mM DTT, 0.005% Tween 20; steady-state equilibrium fit (one site); conditions: both partners purified
T1 construct: CbpM residues 2-101; the immobilisation is told there; also called immobilized CbpM; source: E. coli Rosetta pLysS, purified (Ni-NTA, tag cleaved, amylose resin, size exclusion); not shown: His-MBP, N-terminal, cleaved
T1 sequence: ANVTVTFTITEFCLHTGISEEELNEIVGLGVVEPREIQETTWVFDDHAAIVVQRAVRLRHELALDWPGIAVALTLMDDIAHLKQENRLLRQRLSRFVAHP

## J-domain of E. coli CbpA (CbpA^Jdom) (domain or fragment)
[1]
  stoichiometry N (binder:target chains (printed 2:2)): 1

B1: Klebsiella pneumoniae CbpM (residues 2-101) (natural protein, UniProt A0A378AXB4 2-101, looked up)
chain: ATVTVTFTITELCLRTGVSEEELTEIVGLGMIEPHQPQADTWLFDDSAVTIVHRAVRLRNELELDWPGIAVALTLLDENARLTRENRLLQQRLARFLAHG
notes: CbpM of Klebsiella pneumoniae (strain ATCC 700721/MGH 78578), residues 2-101, amplified from genomic DNA; Forms a parallel coiled-coil dimer in the crystal; each CbpA J-domain touches both subunits; also called K. pneumoniae CbpM; Klebsiella CbpM; source: E. coli Rosetta pLysS, purified (Ni-NTA, tag cleaved, amylose resin, size exclusion); not shown: His-MBP, N-terminal, cleaved
[2]
  stoichiometry N: 2

B2: Chimeric DnaJ^Jdom(25-47): DnaJ J-domain with the central region Y25-F47 replaced by that of CbpA^Jdom (domain or fragment, E. coli, UniProt P08622 2-79, looked up)
chain: AKQDYYEILGVSKTAEEREIRKAYRRLARKYHPDVSKEPDAEARFKEIKEAYEVLTDSQKRAAYDQYGHAAFEQGGM
notes: DnaJ of E. coli, J-domain, residues 2-79, with residues 25-47 replaced by residues 25-46 of E. coli CbpA; also called chimera DnaJ^Jdom (25-47); source: E. coli Rosetta pLysS, purified (glutathione sepharose, tag cleaved, size exclusion); not shown: GST, N-terminal, cleaved
[3]
  Kd: 26 µM
